Results: paper PMC4705956

Target: Asp93 (UniProt position 93, WARYADWLFTT)
Experiment: UV-vis
Conditions: 298 K; 100 mM NaCl (Fig. 7 caption); the Methods state 4 M NaCl for UV-visible spectroscopy; Not stated for the titration; the Methods give 50 mM Tris-HCl for UV-visible samples; Folded, retinal-bound, detergent-solubilised. Light or dark adaptation is not stated.

Work on “Bacteriorhodopsin (HwBR) R82E mutant (Haloquadratum walsbyi; R82E)” yielded a pKa of 2.24.

“Bacteriorhodopsin (HwBR) (Haloquadratum walsbyi)” was tested, and the pKa was 1.97.
